# T1: Af-PARP1 ΔBRCT (Aspergillus fumigatus, UniProt B0Y3N8 196-688)
# T1 sequence: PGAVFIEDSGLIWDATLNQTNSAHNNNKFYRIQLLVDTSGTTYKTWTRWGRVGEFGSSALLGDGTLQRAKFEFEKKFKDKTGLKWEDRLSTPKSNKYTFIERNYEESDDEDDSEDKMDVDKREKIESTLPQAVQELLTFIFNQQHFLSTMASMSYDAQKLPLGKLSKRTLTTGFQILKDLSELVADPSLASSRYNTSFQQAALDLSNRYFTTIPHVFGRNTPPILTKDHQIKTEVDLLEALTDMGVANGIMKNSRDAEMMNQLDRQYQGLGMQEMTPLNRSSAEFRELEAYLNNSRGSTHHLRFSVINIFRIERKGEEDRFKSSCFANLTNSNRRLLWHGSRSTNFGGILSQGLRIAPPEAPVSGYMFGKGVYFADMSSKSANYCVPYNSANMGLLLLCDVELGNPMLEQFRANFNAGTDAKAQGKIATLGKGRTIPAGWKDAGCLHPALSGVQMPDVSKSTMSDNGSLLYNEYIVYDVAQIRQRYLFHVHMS
# Target: T1, Af-PARP1 ΔBRCT
# Assay: EMSA; similar apparent strength to WT in titration; EMSA: 50 mM HEPES pH 8, 100 mM NaCl, 10% glycerol, 10 mM DTT, 45 min at 4 °C, 7% native PAGE 0.5x TBE; plasmid EMSA: 20 mM Tris-HCl pH 8, 30 mM NaCl, 1 mM EDTA, 1 mM DTT; CD: 20 mM HEPES pH 8, 100 mM NaCl, 0.5 mM TCEP, 2% glycerol
# Conditions: protein: recombinant; tags: N-terminal His (HRV3C-cleavable; removed for SAXS/CD); dumbbell of two hairpins, nick
binder,measurement,value
"CGGTCGATCGTAAGATCGACCGGCGCTGGAGCTTGCTCCAGCGC (structured_DNA, 5'-phosphate) [DNA-1 (5'P nick)]",binding result,binds

# Reference: article PMC13507078, “The BRCT domain enhances DNA binding and catalytic efficiency of fungal PARPs”
